These results are taken from publication PMC3728621, “Structural analysis of autoinhibition in the Ras-specific exchange factor RasGRP1” (eLife, 2013).

Data set [1] deals with the molecule itself. The data set is described as follows: multiangle light scattering; RasGRP1^CC in solution, 30 μM to 1.5 mM monomer; data not shown.
Data set [2] deals with the molecule itself. Briefly: crystal structure; RasGRP1^CEC at 3.0 Å; hanging drop, 0.15 M sodium citrate tribasic, 22% PEG 3350, 1 mM MnCl2, 20°C; dimer generated by a crystallographic twofold axis.

B1: RasGRP1^CC (human RasGRP1 C-terminal coiled coil, residues 739-793) (domain or fragment, UniProt O95267 739-793, looked up)
chain: ELRHLRLPTYQELEQEINTLKADNDALKIQLKYAQKKIESLQLEKSNHVLAQMEQ
notes: human RasGRP1 (full length 797 residues), residues 739-793, containing the predicted coiled coil (747-789); Parallel dimeric coiled coil; The model holds residues 745-793 (molecule A) and 745-786 (molecule B); also called C-terminal oligomerization domain; source: E. coli BL21(DE3), purified (HisTrap, tag removal with ULP1, second HisTrap, Superdex gel filtration); not shown: His6, N-terminal, …
Turning to B1, the stoichiometry N (as a rule, the number of molecules, sites or subunits per partner or assembly) in data set [1] was 2.

B2: RasGRP1^CEC (human Ras guanine nucleotide releasing protein 1, residues 50-607: REM, Cdc25, EF and C1 domains) (domain or fragment, UniProt O95267 50-607, looked up)
chain: MVSLGHLAKGASLDDLIDSCIQSFDADGNLCRSNQLLQVMLTMHRIVISSAELLQKVITLYKDALAKNSPGLCLKICYFVRYWITEFWVMFKMDASLTDTMEEFQELVKAKGEELHCRLIDTTQINARDWSRKLTQRIKSNTSKKRKVSLLFDHLEPEELSEHLTYLEFKSFRRISFSDYQNYLVNSCVKENPTMERSIALCNGISQWVQLMVLSRPTPQLRAEVFIKFIQVAQKLHQLQNFNTLMAVIGGLCHSSISRLKETSSHVPHEINKVLGEMTELLSSSRNYDNYRRAYGECTDFKIPILGVHLKDLISLYEAMPDYLEDGKVNVHKLLALYNHISELVQLQEVAPPLEANKDLVHLLTLSLDLYYTEDEIYELSYAREPRNHRAPPLTPSKPPVVVDWASGVSPKPDPKTISKHVQRMVDSVFKNYDHDQDGYISQEEFEKIAASFPFSFCVMDKDREGLISRDEITAYFMRASSIYSKLGLGFPHNFQETTYLKPTFCDNCAGFLWGVIKQGYRCKDCGMNCHKQCKDLVVFECKKRAKNPVAPTENNTS
notes: human RasGRP1 (full length 797 residues), residues 50-607, spanning the REM, Cdc25, EF and C1 domains; Crystallographic dimer; In gel filtration it forms dimers and higher order oligomers, depending on concentration; The structural model spans residues 53-593; 186-192 and 437-448 are not modelled; source: E. coli BL21(DE3), purified (HisTrap, tag removal with ULP1, second HisTrap, Superdex gel …)
Regarding B2, the binding result in data set [2] was “binds”.
